Results published in US20190284272A1 (published 2019).

T1: canine IL-31 protein (Canine_IL31)
T1 chain: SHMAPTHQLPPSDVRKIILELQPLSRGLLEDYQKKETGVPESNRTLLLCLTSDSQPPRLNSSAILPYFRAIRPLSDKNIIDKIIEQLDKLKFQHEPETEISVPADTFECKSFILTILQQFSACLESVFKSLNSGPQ

B1: Feline 15H05 1.1 FW1_2 (antibody, V domains shown)
VH: QVLLVQSGAEVRTPGASVKIFCKASGYSFTSYTIHWLRQAPAQGLEWMGNINPTSGYTENNQRFKDRLTLTADTSTNTAYMELSSLRSADTAMYYCARWGFKYDGEWSFDVWGAGTTVTVSS
VL: DIQMNQSPSSLSASLGDTITVTCRASQGISIWLSWYQQKPGNIPKVLINKASNLHIGVPSRFSGSGSGTDFTLTISSLEPEDAATYYCLQSQTYPLTFGGGTKLEIK
B2: Feline 15H05 1.1 FW3 (antibody, V domains shown)
VH: QVLLVQSGAEVRTPGASVKIFCKASGYSFTSYTIHWLRQAPAQGLEWMGNINPTSGYTENNQRFKDRLTLTADTSTNTAYMELSSLRSADTAMYYCARWGFKYDGEWSFDVWGAGTTVTVSS
VL: EIQMTQSPSSLSASPGDRVTITCRASQGISIWLSWYQQKPGKVPKLLIYKASNLHIGVPPRFSGSGSGTHFTLTITSLQPEDIATYYCLQSQTYPLTFGGGTKLEIK
B3: Feline 15H05 VH1 mouse VL (antibody, V domains shown)
VH: QVLLVQSGAEVRTPGASVKIFCKASGYSFTSYTIHWLRQAPAQGLEWMGNINPTSGYTENNQRFKDRLTLTADTSTNTAYMELSSLRSADTAMYYCARWGFKYDGEWSFDVWGAGTTVTVSS
VL: DIQMNQSPSSLSASLGDTITVTCRASQGISIWLSWYQQKPGNIPKVLINKASNLHIGVPPRFSGSGSGTHFTLTITSLQPEDIATYYCLQSQTYPLTFGGGTKLEIN
B4: Feline 15H05 VH3 mouse VL (antibody, V domains shown)
VH: QVLLVQSGAEVRKPGASVKIFCKASGYSFTSYTIHWLRQAPEQGLEWMGNINPTSGYTENNQRFKDRLTLTADTSTNTAYMELSSLRSADTAMYYCARWGFKYDGEWSFDVWGAGTTVTVSS
VL: DIQMNQSPSSLSASLGDTITVTCRASQGISIWLSWYQQKPGNIPKVLINKASNLHIGVPPRFSGSGSGTHFTLTITSLQPEDIATYYCLQSQTYPLTFGGGTKLEIN
B5: Feline 15H05 1.3 (antibody, V domains shown)
VH: QVLLVQSGAEVRTPGASVKIFCKASGYSFTSYTIHWLRQAPAQGLEWMGNINPTSGYTENNQRFKDRLTLTADTSTNTAYMELSSLRSADTAMYYCARWGFKYDGEWSFDVWGAGTTVTVSS
VL: EVVLTQSSAFLSRTLKEKATITCRASQGISIWLSWYQQKPNQAPKLLVKKASNLHIGAPSRFSGSGSGTDFTLTISSPEPEDAATYYCLQSQTYPLTFGGGTKLGDQ
B6: Feline 15H05 1.2 (antibody, V domains shown)
VH: QVLLVQSGAEVRTPGASVKIFCKASGYSFTSYTIHWLRQAPAQGLEWMGNINPTSGYTENNQRFKDRLTLTADTSTNTAYMELSSLRSADTAMYYCARWGFKYDGEWSFDVWGAGTTVTVSS
VL: EITMTQSPGSLAGSPGQQVTMNCRASQGISIWLSWYQQKPGQHPKLLIYKASNLHIGVPDRFSGSGSGTDFTLTISNLQAEDVASYYCLQSQTYPLTFGGGTKLEIK
B7: Feline 15H05 2.2 (antibody, V domains shown)
VH: QVLLVQSGAEVRTPGASVKIFCKASGYGFTSYTIHWVRQSPAQGLEWMGNINPTSGYTENNQRFKDRLTLTADTSTNTAYMELSSLRSADTAMYYCARWGFKYDGEWSFDVWGAGTTVTVSS
VL: EITMTQSPGSLAGSPGQQVTMNCRASQGISIWLSWYQQKPGQHPKLLIYKASNLHIGVPDRFSGSGSGTDFTLTISNLQAEDVASYYCLQSQTYPLTFGGGTKLEIK
B8: Feline 15H05 3.1 (antibody, V domains shown)
VH: QVLLVQSGAEVRKPGASVKIFCKASGYSFTSYTIHWLRQAPEQGLEWMGNINPTSGYTENNQRFKDRLTLTADTSTNTAYMELSSLRSADTAMYYCARWGFKYDGEWSFDVWGAGTTVTVSS
VL: EIQMTQSPSSLSASPGDRVTITCRASQGISIWLSWYQQKPGKVPKLLIYKASNLHIGVPSRFSGSGSGTDFTLTISSLEPEDAATYYCLQSQTYPLTFGGGTKLEIK
B9: Feline 15H05 1.1 FW2_3 (antibody, V domains shown)
VH: QVLLVQSGAEVRTPGASVKIFCKASGYSFTSYTIHWLRQAPAQGLEWMGNINPTSGYTENNQRFKDRLTLTADTSTNTAYMELSSLRSADTAMYYCARWGFKYDGEWSFDVWGAGTTVTVSS
VL: EIQMTQSPSSLSASPGDRVTITCRASQGISIWLSWYQQKPGNIPKVLINKASNLHIGVPPRFSGSGSGTHFTLTITSLQPEDIATYYCLQSQTYPLTFGGGTKLEIK
B10: Feline 15H05 1.1 FW1_3 (antibody, V domains shown)
VH: QVLLVQSGAEVRTPGASVKIFCKASGYSFTSYTIHWLRQAPAQGLEWMGNINPTSGYTENNQRFKDRLTLTADTSTNTAYMELSSLRSADTAMYYCARWGFKYDGEWSFDVWGAGTTVTVSS
VL: DIQMNQSPSSLSASLGDTITVTCRASQGISIWLSWYQQKPGKVPKLLIYKASNLHIGVPPRFSGSGSGTHFTLTITSLQPEDIATYYCLQSQTYPLTFGGGTKLEIK
B11: Feline 15H05 VH2 mouse VL (antibody, V domains shown)
VH: QVLLVQSGAEVRTPGASVKIFCKASGYGFTSYTIHWVRQSPAQGLEWMGNINPTSGYTENNQRFKDRLTLTADTSTNTAYMELSSLRSADTAMYYCARWGFKYDGEWSFDVWGAGTTVTVSS
VL: DIQMNQSPSSLSASLGDTITVTCRASQGISIWLSWYQQKPGNIPKVLINKASNLHIGVPPRFSGSGSGTHFTLTITSLQPEDIATYYCLQSQTYPLTFGGGTKLEIN
B12: Feline 15H05 1.1 FW2 (antibody, V domains shown)
VH: QVLLVQSGAEVRTPGASVKIFCKASGYSFTSYTIHWLRQAPAQGLEWMGNINPTSGYTENNQRFKDRLTLTADTSTNTAYMELSSLRSADTAMYYCARWGFKYDGEWSFDVWGAGTTVTVSS
VL: EIQMTQSPSSLSASPGDRVTITCRASQGISIWLSWYQQKPGNIPKVLINKASNLHIGVPSRFSGSGSGTDFTLTISSLEPEDAATYYCLQSQTYPLTFGGGTKLEIK
B13: Feline 15H05 1.1 FW1 (antibody, V domains shown)
VH: QVLLVQSGAEVRTPGASVKIFCKASGYSFTSYTIHWLRQAPAQGLEWMGNINPTSGYTENNQRFKDRLTLTADTSTNTAYMELSSLRSADTAMYYCARWGFKYDGEWSFDVWGAGTTVTVSS
VL: DIQMNQSPSSLSASLGDTITVTCRASQGISIWLSWYQQKPGKVPKLLIYKASNLHIGVPSRFSGSGSGTDFTLTISSLEPEDAATYYCLQSQTYPLTFGGGTKLEIK
B14: Feline 15H05 3.2 (antibody, V domains shown)
VH: QVLLVQSGAEVRKPGASVKIFCKASGYSFTSYTIHWLRQAPEQGLEWMGNINPTSGYTENNQRFKDRLTLTADTSTNTAYMELSSLRSADTAMYYCARWGFKYDGEWSFDVWGAGTTVTVSS
VL: EITMTQSPGSLAGSPGQQVTMNCRASQGISIWLSWYQQKPGQHPKLLIYKASNLHIGVPDRFSGSGSGTDFTLTISNLQAEDVASYYCLQSQTYPLTFGGGTKLEIK
B15: Feline 15H05 1.1 (antibody, V domains shown)
VH: QVLLVQSGAEVRTPGASVKIFCKASGYSFTSYTIHWLRQAPAQGLEWMGNINPTSGYTENNQRFKDRLTLTADTSTNTAYMELSSLRSADTAMYYCARWGFKYDGEWSFDVWGAGTTVTVSS
VL: EIQMTQSPSSLSASPGDRVTITCRASQGISIWLSWYQQKPGKVPKLLIYKASNLHIGVPSRFSGSGSGTDFTLTISSLEPEDAATYYCLQSQTYPLTFGGGTKLEIK
B16: Feline 15H05 2.1 (antibody, V domains shown)
VH: QVLLVQSGAEVRTPGASVKIFCKASGYGFTSYTIHWVRQSPAQGLEWMGNINPTSGYTENNQRFKDRLTLTADTSTNTAYMELSSLRSADTAMYYCARWGFKYDGEWSFDVWGAGTTVTVSS
VL: EIQMTQSPSSLSASPGDRVTITCRASQGISIWLSWYQQKPGKVPKLLIYKASNLHIGVPSRFSGSGSGTDFTLTISSLEPEDAATYYCLQSQTYPLTFGGGTKLEIK
B17: Feline_11E12 1.1_K46Q (antibody, V domains shown)
VH: QVLLVQSGAEVKKPGASVKIFCKASGYSFTYYDINWLRQAPEQGLEWMGWIFPGDGGTKYNETFKGRLTLTADTSTNTVYMELSSLRSADTAMYYCARGGTSVIRDAMDYWGQGALVTVSS
VL: EIQMTQSPSSLSASPGDRVTITCRASESVDNYGISFMHWYQQKPGQVPKLLIYRASNLESGVPSRFSGSGSGTDFTLTISSLEPEDAATYYCQQSNKDPLTFGQGT
B18: Feline 11E12 1.1 FW2 (antibody, V domains shown)
VH: QVLLVQSGAEVKKPGASVKIFCKASGYSFTYYDINWLRQAPEQGLEWMGWIFPGDGGTKYNETFKGRLTLTADTSTNTVYMELSSLRSADTAMYYCARGGTSVIRDAMDYWGQGALVTVSS
VL: EIQMTQSPSSLSASPGDRVTITCRASESVDNYGISFMHWYQQKPGQPPKLLIYRASNLESGVPSRFSGSGSGTDFTLTISSLEPEDAATYYCQQSNKDPLTFGQGT
B19: Feline 11E12 1.1 (antibody, V domains shown)
VH: QVLLVQSGAEVKKPGASVKIFCKASGYSFTYYDINWLRQAPEQGLEWMGWIFPGDGGTKYNETFKGRLTLTADTSTNTVYMELSSLRSADTAMYYCARGGTSVIRDAMDYWGQGALVTVSS
VL: EIQMTQSPSSLSASPGDRVTITCRASESVDNYGISFMHWYQQKPGKVPKLLIYRASNLESGVPSRFSGSGSGTDFTLTISSLEPEDAATYYCQQSNKDPLTFGQGT

Biological target: T1, canine IL-31 protein (Canine_IL31)
Assay: Biacore

Binder | Kd [nM]
B1 | 0.263
B2 | 0.13
B3 | 0.00246
B4 | 0.00264
B5 | 6.38
B6 | 3.48
B7 | 0.393
B8 | 0.795
B9 | 214
B10 | 0.00436
B11 | 2.22
B12 | 0.000431
B13 | 813
B14 | 0.204
B15 | 0.00504
B16 | 1.65
B17 | 1.91
B18 | 7.02
B19 | 0.764
